Patent US20260083725A1, “SIGMARI LIGAND FOR THE TREATMENT OF PANCREATIC CANCER” (INSTITUT NATIONAL DE LA SANTÉ ET DE LA RECHERCHE MÉDICALE, priority 2022, published 2026)

System: SK2 channel
Assay: Whole cell patch clamp recording of SK2 current in pancreatic cancer cells
Type: cell-based, human
Details: cells treated without CAF-CM; EGF 25 ng/mL overnight
Procedure: Electrophysiological recordings in HEK293-T, PANC-1 and MiaPaCa-2 cells were performed in the whole cell configuration of the patch clamp technique at room temperature. Cells were bathed in a solution containing: 5 mM KCl, 145 mM NaCl, 1 mM MgCl2, 2 mM CaCl2, and 10 mM Hepes (pH adjusted to 7.4 with HCl, 300 mosm/L). Soft glass patch electrodes (Brand, Wertheim, Germany) were made on a horizontal pipette puller (P-97, Sutter Instrument Co., Novato, CA) to achieve a final resistance ranging from 3 to 5 MΩ. The internal solution was: 145 mM KCl, 1 mM MgCl2, 0.87 mM CaCl2, 1 mM EGTA, 10 mM Hepes, 1 mM ATP (pH adjusted to 7.2 with KOH, 308 mosm/L, pCa 6). Recordings were performed at room temperature in the voltage clamp mode using an PC-controlled EPC 9 patch-clamp amplifier (HEKA, Lambrecht/Pfalz, Germany). Currents were acquired and analyzed with Pulse and Pulsefit software (HEKA). Signal were filtered at 10 kHz and digitalized at 20 kHz. Currents were elicited by voltage ramps protocols (from −120 to +60 mV). Current density was measured at 0 mV. For the electrophysiological study of the SK2 mutations, HEK293-T were transfected with the different constructions and the HA-myr-AKT using calcium phosphate and recorded 24 h after transfection.

B1: EGF: EGFR ligand; growth factor applied to cells at 25 ng/mL (protein, UniProt P01133 23-1207, looked up)
Pro-epidermal growth factor: PQHWSCPEGTLAGNGNSTCVGPAPFLIFSHGNSIFRIDTEGTNYEQLVVDAGVSVIMDFHYNEKRIYWVDLERQLLQRVFLNGSRQERVCNIEKNVSGMAINWINEEVIWSNQQEGIITVTDMKGNNSHILLSALKYPANVAVDPVERFIFWSSEVAGSLYRADLDGVGVKALLETSEKITAVSLDVLDKRLFWIQYNREGSNSLICSCDYDGGSVHISKHPTQHNLFAMSLFGDRIFYSTWKMKTIWIANKHTGKDMVRINLHSSFVPLGELKVVHPLAQPKAEDDTWEPEQKLCKLRKGNCSSTVCGQDLQSHLCMCAEGYALSRDRKYCEDVNECAFWNHGCTLGCKNTPGSYYCTCPVGFVLLPDGKRCHQLVSCPRNVSECSHDCVLTSEGPLCFCPEGSVLERDGKTCSGCSSPDNGGCSQLCVPLSPVSWECDCFPGYDLQLDEKSCAASGPQPFLLFANSQDIRHMHFDGTDYGTLLSQQMGMVYALDHDPVENKIYFAHTALKWIERANMDGSQRERLIEEGVDVPEGLAVDWIGRRFYWTDRGKSLIGRSDLNGKRSKIITKENISQPRGIAVHPMAKRLFWTDTGINPRIESSSLQGLGRLVIASSDLIWPSGITIDFLTDKLYWCDAKQSVIEMANLDGSKRRRLTQNDVGHPFAVAVFEDYVWFSDWAMPSVMRVNKRTGKDRVRLQGSMLKPSSLVVVHPLAKPGADPCLYQNGGCEHICKKRLGTAWCSCREGFMKASDGKTCLALDGHQLLAGGEVDLKNQVTPLDILSKTRVSEDNITESQHMLVAEIMVSDQDDCAPVGCSMYARCISEGEDATCQCLKGFAGDGKLCSDIDECEMGVPVCPPASSKCINTEGGYVCRCSEGYQGDGIHCLDIDECQLGEHSCGENASCTNTEGGYTCMCAGRLSEPGLICPDSTPPPHLREDDHHYSVRNSDSECPLSHDGYCLHDGVCMYIEALDKYACNCVVGYIGERCQYRDLKWWELRHAGHGQQQKVIVVAVCVVVLVMLLLLSLWGAHYYRTQKLLSKNPKNPYEESSRDVRSRRPADTEDGMSSCPQPWFVVIKEHQDLKNGGQPVAGEDGQAADGSMQPTSWRQEPQLCGMGTEQGCWIPVSSDKGSCPQVMERSFHMPSYGTQTLEGGVEKPHSLLSANPLWQQRALDPPHQMELTQ
modifications: Pro-epidermal growth factor
notes: EGFR ligand; growth factor applied to cells at 25 ng/mL
SK2 current: significant increase
